According to paper PMC6774519:

Columns and labels:
[1] = tested on: #B1-3 anti-m6A monoclonal antibody (guinea pig (Hartley)); test: UV crosslinking, IP and RT truncation (footprinting); settings: 41 clones sequenced; m6A at position 14; SPR: Biacor T100, HBS-EP+ buffer, 30 ul/min, biotin-RNA at 20 RU on SA chip, antibody 0-27 nM, 1:1 fit; ELISA: PBS, 3 h, room temperature; UV-crosslink IP: …
[2] = tested on: #B1-1 anti-m6A monoclonal antibody (guinea pig (Hartley)); test: SPR; settings: m6A at position 6; SPR: Biacor T100, HBS-EP+ buffer, 30 ul/min, biotin-RNA at 20 RU on SA chip, antibody 0-27 nM, 1:1 fit; ELISA: PBS, 3 h, room temperature; UV-crosslink IP: …
[3] = tested on: #B1-3 anti-m6A monoclonal antibody (guinea pig (Hartley)); test: SPR; settings: m6A at position 6; SPR: Biacor T100, HBS-EP+ buffer, 30 ul/min, biotin-RNA at 20 RU on SA chip, antibody 0-27 nM, 1:1 fit; ELISA: PBS, 3 h, room temperature; UV-crosslink IP: …
[4] = tested on: #B1-3 anti-m6A monoclonal antibody (guinea pig (Hartley)); test: pull-down (protein A IP); settings: m6A at position 6; SPR: Biacor T100, HBS-EP+ buffer, 30 ul/min, biotin-RNA at 20 RU on SA chip, antibody 0-27 nM, 1:1 fit; ELISA: PBS, 3 h, room temperature; UV-crosslink IP: …

Sequence | binding signal (% RT truncations at m6A) [1] | Kd [2] | Kd [3] | binding signal (% immunoprecipitated) [4]
AUCAUCUUUCGGGACUGACCUGAAAUGAACCCUA [Snord-oligo (Snord2, 34 nt)] | 68 | – | – | –
NNNGGACNNN [m6A-oligo] | – | 2.5 nM | 6.5 nM | 35
